Columns and labels:
human IL-36R [1] = target: T1, human IL-36R (human, UniProt Q9HB29 20-575); assay: cell-based or functional assay
T1 sequence (looked up): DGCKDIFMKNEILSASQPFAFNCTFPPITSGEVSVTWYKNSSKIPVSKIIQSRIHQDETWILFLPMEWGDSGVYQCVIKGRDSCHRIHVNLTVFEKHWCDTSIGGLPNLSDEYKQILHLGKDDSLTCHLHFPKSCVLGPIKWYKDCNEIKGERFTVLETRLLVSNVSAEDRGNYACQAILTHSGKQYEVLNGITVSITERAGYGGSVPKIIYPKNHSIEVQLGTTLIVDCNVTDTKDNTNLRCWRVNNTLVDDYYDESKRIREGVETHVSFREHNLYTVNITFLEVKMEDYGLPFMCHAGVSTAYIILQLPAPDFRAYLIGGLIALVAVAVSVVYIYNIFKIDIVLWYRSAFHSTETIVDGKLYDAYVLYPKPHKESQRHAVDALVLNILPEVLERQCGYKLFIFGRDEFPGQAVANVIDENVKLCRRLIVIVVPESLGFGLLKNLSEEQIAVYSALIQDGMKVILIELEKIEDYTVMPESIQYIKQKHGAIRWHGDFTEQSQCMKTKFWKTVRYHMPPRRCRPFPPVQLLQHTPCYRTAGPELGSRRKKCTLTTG

monkey IL-36R = target: T2, monkey IL-36R (monkey); assay: flow cytometry on CHO-K1 cells expressing monkey IL-36R
T2 construct: whole, on cells

human IL-36R [2] = target: T1, human IL-36R; assay: cell-based or functional assay; remark: listed apart in the source
human IL-36R [3] = target: T1, human IL-36R; assay: cell-based or functional assay; remark: listed apart in the source
[4] = target: T3, His-tagged human IL-1 Rrp2/IL-1R6 protein (human, UniProt Q9HB29 20-335, limits assumed); assay: SPR Biacore 8K, His-tagged antigen captured by anti-His antibody, antibody as analyte, 1:1 model
T3 construct: Bought protein; also called His-tagged human IL-1 Rrp2/IL-IR6 protein; not shown: His tag
T3 sequence (looked up): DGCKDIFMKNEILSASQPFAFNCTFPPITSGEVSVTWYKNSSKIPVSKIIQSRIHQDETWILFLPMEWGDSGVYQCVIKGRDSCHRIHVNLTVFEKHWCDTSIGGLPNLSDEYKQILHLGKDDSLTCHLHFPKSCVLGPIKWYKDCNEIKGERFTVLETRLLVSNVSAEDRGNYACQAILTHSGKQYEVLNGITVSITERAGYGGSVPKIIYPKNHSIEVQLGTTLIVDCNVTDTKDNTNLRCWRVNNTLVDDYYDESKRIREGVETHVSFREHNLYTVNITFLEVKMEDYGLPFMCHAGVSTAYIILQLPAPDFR

human IL-36R [5] = target: T1, human IL-36R; assay: cell-based or functional assay; remark: listed apart in the source
human IL-36R [6] = target: T1, human IL-36R; assay: flow cytometry on CHO-K1-huIL-36R-5E10/2F10 cells
[7] = target: T4, IL36R (analyte of Table 17) (Homo sapiens (Human), UniProt Q9HB29 20-335); assay: SPR Biacore 8K, antibody captured on anti-human chip, antigen as analyte, 1:1 model
T4 sequence: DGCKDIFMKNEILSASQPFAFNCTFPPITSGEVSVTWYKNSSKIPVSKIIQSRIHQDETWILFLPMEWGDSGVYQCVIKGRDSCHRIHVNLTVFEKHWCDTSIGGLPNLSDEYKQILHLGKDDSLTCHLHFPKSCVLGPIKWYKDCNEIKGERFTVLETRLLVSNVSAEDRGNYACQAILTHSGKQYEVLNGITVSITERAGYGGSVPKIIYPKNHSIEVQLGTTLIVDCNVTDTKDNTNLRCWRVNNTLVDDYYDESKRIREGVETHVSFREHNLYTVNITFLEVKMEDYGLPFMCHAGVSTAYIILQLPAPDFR

human IL-36R [8] = target: T1, human IL-36R; assay: cell-based or functional assay; remark: listed apart in the source
human IL-36R [9] = target: T1, human IL-36R; assay: flow cytometry on CHO-K1 cells expressing human IL-36R
human IL-36R [10] = target: T1, human IL-36R; assay: cell-based or functional assay; remark: listed apart in the source

B1: humanized anti-IL-36R antibody 900527 (antibody, V domains shown)
VH: QVQLVQSGAEVKKPGASVKVSCKASGYTFTSSWMHWAKQAPGQGLEWIGEIHPNSAKTNYNQKFQGRVTMTRDTSISTAYMELSRLRSDDTAVYYCARVDYGKPWFAYWGQGTLVTVSS
VL: QIVLTQSPGTLSLSPGERATLSCRASSSVSSSYLHWYQQKPGQAPRLWIYSTSSRATGIPDRFSGSGSGTDFTLTISRLEPEDFATYYCQQFQSSPLTFGQGTKLEIK
notes: IgG1 (vector with L234A, L235A) and human kappa
- HuIL-6 detected in HIF under IL-36α stimulation IC50 (human IL-36R [1]): 0.0479 µg/mL
- EC50 (monkey IL-36R): 0.0595 µg/mL
- HuIL-6 detected in HIF under IL-36β stimulation IC50 (human IL-36R [2]): 0.0546 µg/mL
- pNFκB detected in HIF under IL-36β stimulation IC50 (human IL-36R [3]): 0.105 µg/mL
- Kd [4]: 0.0452 nM
- koff [4]: 4.37e-05 s⁻¹
- kon [4]: 967000 M⁻¹ s⁻¹
- HuIL-6 detected in NCI/ADR-RES under IL-36β stimulation IC50 (human IL-36R [5]): 0.00887 µg/mL
- EC50 (human IL-36R [6]): 0.32 nM
- Kd [7]: 0.141 nM
- koff [7]: 0.00015 s⁻¹
- kon [7]: 1.07e+06 M⁻¹ s⁻¹
- IC50 of GM-CSF release, NCI/ADR-RES cells stimulated with IL-36α (human IL-36R [8]): 0.022 µg/mL
- IC50 of GM-CSF release, NCI/ADR-RES cells stimulated with IL-36β (human IL-36R [8]): 0.0174 µg/mL
- IC50 of GM-CSF release, NCI/ADR-RES cells stimulated with IL-36γ (human IL-36R [8]): 0.0198 µg/mL
- IC50 of IL-6 release, NCI/ADR-RES cells stimulated with IL-36α (human IL-36R [8]): 0.015 µg/mL
- IC50 of IL-6 release, NCI/ADR-RES cells stimulated with IL-36β (human IL-36R [8]): 0.0139 µg/mL
- IC50 of IL-6 release, NCI/ADR-RES cells stimulated with IL-36γ (human IL-36R [8]): 0.0162 µg/mL
- IC50 of IL-8 release, NCI/ADR-RES cells stimulated with IL-36α (human IL-36R [8]): 0.0315 µg/mL
- IC50 of IL-8 release, NCI/ADR-RES cells stimulated with IL-36β (human IL-36R [8]): 0.0223 µg/mL
- IC50 of IL-8 release, NCI/ADR-RES cells stimulated with IL-36γ (human IL-36R [8]): 0.0198 µg/mL
- IC50 of pNF-κB, NCI/ADR-RES cells stimulated with IL-36β (human IL-36R [8]): 71.4 ng/mL
- EC50 (human IL-36R [9]): 0.062 µg/mL
- EC50 of inhibition of IL-6 content, NCI/ADR-RES cells stimulated with IL-36β (human IL-36R [10]): 0.069 nM

B2: humanized anti-IL-36R antibody 900513 (antibody, V domains shown)
VH: QVQLVQSGAEVKKPGASVKVSCKASGYTFTSSWMHWAKQAPGQGLEWIGEIHPNSAKTNYNQKFQGRVTMTRDTSISTAYMELSRLRSDDTAVYYCARVDYGKPWFAYWGQGTLVTVSS
VL: EIVLTQSPGTLSLSPGERATLSCSASSSVSSSYLHWYQQKPGQAPRLWIYSTSNRATGIPDRFSGSGSGTDFTLTISRLEPEDFATYYCQQFQSSPLTFGQGTKLEIK
notes: as for B1
- Kd [4]: 0.0148 nM
- koff [4]: 1.34e-05 s⁻¹
- kon [4]: 904000 M⁻¹ s⁻¹
- IC50 of GM-CSF release, NCI/ADR-RES cells stimulated with IL-36α (human IL-36R [8]): 0.0206 µg/mL
- IC50 of GM-CSF release, NCI/ADR-RES cells stimulated with IL-36β (human IL-36R [8]): 0.0184 µg/mL
- IC50 of GM-CSF release, NCI/ADR-RES cells stimulated with IL-36γ (human IL-36R [8]): 0.0179 µg/mL
- IC50 of IL-6 release, NCI/ADR-RES cells stimulated with IL-36α (human IL-36R [8]): 0.0124 µg/mL
- IC50 of IL-6 release, NCI/ADR-RES cells stimulated with IL-36β (human IL-36R [8]): 0.0223 µg/mL
- IC50 of IL-6 release, NCI/ADR-RES cells stimulated with IL-36γ (human IL-36R [8]): 0.0121 µg/mL
- IC50 of IL-8 release, NCI/ADR-RES cells stimulated with IL-36α (human IL-36R [8]): 0.0398 µg/mL
- IC50 of IL-8 release, NCI/ADR-RES cells stimulated with IL-36β (human IL-36R [8]): 0.0221 µg/mL
- IC50 of IL-8 release, NCI/ADR-RES cells stimulated with IL-36γ (human IL-36R [8]): 0.018 µg/mL
- IC50 of pNF-κB, NCI/ADR-RES cells stimulated with IL-36β (human IL-36R [8]): 105 ng/mL

B3: humanized anti-IL-36R antibody 900534 (antibody, V domains shown)
VH: QVQLVQSGAEVKKPGASVKVSCKASGYTFTSSWMHWAKQAPGQGLEWIGEIHPNSAKTNYNQKFQGRVTMTRDTSISTAYMELSRLRSDDTAVYYCARVDYGKPWFAYWGQGTLVTVSS
VL: QIVLTQSPGTLSLSPGERATLSCRASSSVSSSYLHWYQQKPGQAPRLLIYSTSSRATGIPDRFSGSGSGTDFTLTISRLEPEDFATYYCQQFQSSPLTFGQGTKLEIK
notes: as for B1
- Kd [4]: 0.0579 nM
- koff [4]: 5.1e-05 s⁻¹
- kon [4]: 881000 M⁻¹ s⁻¹
- IC50 of GM-CSF release, NCI/ADR-RES cells stimulated with IL-36α (human IL-36R [8]): 0.0202 µg/mL
- IC50 of GM-CSF release, NCI/ADR-RES cells stimulated with IL-36β (human IL-36R [8]): 0.0186 µg/mL
- IC50 of GM-CSF release, NCI/ADR-RES cells stimulated with IL-36γ (human IL-36R [8]): 0.021 µg/mL
- IC50 of IL-6 release, NCI/ADR-RES cells stimulated with IL-36α (human IL-36R [8]): 0.0216 µg/mL
- IC50 of IL-6 release, NCI/ADR-RES cells stimulated with IL-36β (human IL-36R [8]): 0.0168 µg/mL
- IC50 of IL-6 release, NCI/ADR-RES cells stimulated with IL-36γ (human IL-36R [8]): 0.0176 µg/mL
- IC50 of IL-8 release, NCI/ADR-RES cells stimulated with IL-36α (human IL-36R [8]): 0.0304 µg/mL
- IC50 of IL-8 release, NCI/ADR-RES cells stimulated with IL-36β (human IL-36R [8]): 0.022 µg/mL
- IC50 of IL-8 release, NCI/ADR-RES cells stimulated with IL-36γ (human IL-36R [8]): 0.018 µg/mL
- IC50 of pNF-κB, NCI/ADR-RES cells stimulated with IL-36β (human IL-36R [8]): 64.9 ng/mL
